Assay results reported in patent publication US20220056091A1 (BRIGHT PEAK THERAPEUTICS, published 2022).
Numbering of substitutions follows the chain as printed.

What was measured:
Test in all cases: cell-based or functional assay
[1] = molecular target: T1, Modified IL-18 polypeptide of SEQ ID NO: 11 (E06K, K53A, S55A, Y01G) (human, UniProt Q14116 38-193)
T1 chain: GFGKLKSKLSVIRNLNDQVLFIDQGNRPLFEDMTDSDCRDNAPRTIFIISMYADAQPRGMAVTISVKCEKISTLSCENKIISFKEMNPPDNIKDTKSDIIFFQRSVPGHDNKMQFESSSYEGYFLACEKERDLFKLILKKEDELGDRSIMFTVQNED

[2] = molecular target: T2, Modified IL-18 polypeptide of SEQ ID NO: 14 (E06K, K53A, S55A, M51G) (human, UniProt Q14116 37-193)
T2 chain: T1 chain with G1Y, M51G

[3] = molecular target: T3, Modified IL-18 polypeptide of SEQ ID NO: 15 (C38S, C68S, C76S, C127S) (human, UniProt Q14116 37-193)
T3 chain: T1 chain with G1Y, K6E, C38S, A53K, A55S, C68S, C76S, C127S

[4] = molecular target: Modified IL-18 polypeptide of SEQ ID NO: 19 (T63A) (human, UniProt Q14116 37-193)
[5] = molecular target: T4, Modified IL-18 polypeptide of SEQ ID NO: 3 (Y01G, F02A, E06K, M51G, K53A, D54A, S55A, T63A) (human, UniProt Q14116 37-193)
T4 chain: T1 chain with F2A, M51G, D54A, T63A

[6] = molecular target: Modified IL-18 polypeptide of SEQ ID NO: 8 (E06K, S55A) (human, UniProt Q14116 37-193)

B1: Fc fused human IL-18BP isoform a (IL-18BPa) (Fc fusion, UniProt O95998 31-194, looked up, not shown: a dimerising Fc or GST)
chain: TPVSQTTTAATASVRSTKDPCPSQPPVFPAAKQCPALEVTWPEVEVPLNGTLSLSCVACSRFPNFSILYWLGNGSFIEHLPGRLWEGSTSRERGSTGTQLCKALVLEQLTPALHSTNFSCVLVDPEQVVQRHVVLAQLWAGLRATLPPTQEALPSSHSSPQQQG
[1]
  IC50 (nM), IL-18BPa inhibition of IFNγ release by NK-92 cells (1 nM IL-18 analyte): 27.8 nM
[2]
  IC50 (nM), IL-18BPa inhibition of IFNγ release by NK-92 cells (1 nM IL-18 analyte): 0.189 nM
[3]
  IC50 (nM), IL-18BPa inhibition of IFNγ release by NK-92 cells (1 nM IL-18 analyte): 0.444 nM
[4]
  IC50 (nM), IL-18BPa inhibition of IFNγ release by NK-92 cells (1 nM IL-18 analyte): 0.239 nM
[5]
  IC50 (nM), IL-18BPa inhibition of IFNγ release by NK-92 cells (1 nM IL-18 analyte): > 55 nM
[6]
  IC50 (nM), IL-18BPa inhibition of IFNγ release by NK-92 cells (1 nM IL-18 analyte): 15 nM
